Reference: US20220177587A1, “METHODS AND USES OF VARIANT CD80 FUSION PROTEINS AND RELATED CONSTRUCTS” (Alpine Immune Sciences, Inc., priority 2018, published 2022)
Values belong to the substance of their own block, whether it stands above or below them.

How the values were obtained:
[1] = target: human CTLA-4 (huCTLA4), on stably transduced CHO cells (human) (UniProt P16410); assay: flow cytometry on CHO cells stably expressing huCTLA4, 33.3 nM Fc fusion, PE anti-human Fc
[2] = target: CD28, endogenously expressed on Jurkat/IL2 reporter cells (human) (UniProt P10747); assay: flow cytometry on Jurkat/IL2 reporter cells (endogenous CD28), 33.3 nM Fc fusion, PE anti-human Fc
[3] = target: human PD-L1 (huPD-L1), on stably transduced CHO cells (human) (UniProt Q9NZQ7); assay: flow cytometry on CHO cells stably expressing huPD-L1, 33.3 nM Fc fusion, PE anti-human Fc
[4] = target: PD-L1 (human) (UniProt Q9NZQ7); assay: flow cytometry, CHO cells expressing huPD-L1
[5] = target: CD28 (human) (UniProt P10747); assay: flow cytometry, Jurkat/IL2 reporter cells (CD28)
[6] = target: CD28 (human) (UniProt P10747); assay: flow cytometry, Jurkat cells (CD28)
[7] = target: human CTLA-4 (human) (UniProt P16410); assay: flow cytometry, CHO cells stably expressing CTLA4
[8] = target: PD-L1 (human) (UniProt Q9NZQ7); assay: flow cytometry, CHO cells stably expressing PD-L1
[9] = target: PD-L1 (human) (UniProt Q9NZQ7); assay: flow cytometry, MFI on PD-L1 cells over MFI on CD28 cells
[10] = target: human CTLA-4 (human) (UniProt P16410); assay: flow cytometry, CHO cells expressing huCTLA4
[11] = target: PD-L1 (human) (UniProt Q9NZQ7); assay: flow cytometry, CHO cells expressing huPD-L1; remark: listed apart in the source
[12] = target: human CTLA-4 (human) (UniProt P16410); assay: flow cytometry, CHO cells expressing huCTLA-4

Chain of PD-L1 (human) (Q9NZQ7 19-290): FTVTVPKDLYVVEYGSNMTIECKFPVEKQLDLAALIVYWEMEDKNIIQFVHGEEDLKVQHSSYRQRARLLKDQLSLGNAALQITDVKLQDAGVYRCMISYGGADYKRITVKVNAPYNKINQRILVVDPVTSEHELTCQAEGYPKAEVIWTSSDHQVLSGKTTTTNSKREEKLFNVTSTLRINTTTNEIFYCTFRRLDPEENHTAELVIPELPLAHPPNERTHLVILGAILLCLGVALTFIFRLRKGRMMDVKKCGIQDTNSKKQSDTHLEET
Chain of human PD-L1 (huPD-L1), on stably transduced CHO cells (human) (Q9NZQ7 19-290): as above
Chain of human CTLA-4 (huCTLA4), on stably transduced CHO cells (human) (P16410 36-223): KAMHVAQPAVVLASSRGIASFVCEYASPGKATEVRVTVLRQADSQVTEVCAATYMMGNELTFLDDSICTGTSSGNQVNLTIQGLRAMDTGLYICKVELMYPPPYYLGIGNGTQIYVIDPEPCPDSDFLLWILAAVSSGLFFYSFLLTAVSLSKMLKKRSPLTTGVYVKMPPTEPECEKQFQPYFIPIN
Chain of human CTLA-4 (human) (P16410 36-223): as above

MFI at 33.3 nM [1]: 31200 MFI | MFI at 33.3 nM [2]: 99.4 MFI
Substance: variant CD80 IgV-Fc E35D/M47V/T62S/L85Q (Fc fusion)

MFI at 33.3 nM [3]: 3030 MFI | MFI at 33.3 nM [2]: 582 MFI
Substance: variant CD80 IgV-Fc E35D/N48K/L72V (Fc fusion)

MFI at 33.3 nM [4]: 17400 MFI | MFI at 33.3 nM [5]: 1530 MFI
Substance: variant CD80 IgV-Fc E35D/N48K/V68M/K89N (Fc fusion)

Fold change to WT CD80 [6]: 58.9 fold | MFI at 33.3 nM [6]: 2580 MFI | Fold change to WT CD80 [7]: 14.2 fold | MFI at 33.3 nM [7]: 19300 MFI | Fold change to WT CD80 [8]: 532 fold | MFI at 33.3 nM [8]: 23200 MFI | Ratio of PDL1:CD28 [9]: 9
Substance: variant CD80 IgV-Fc H18Y/A26E/E35D/V68M/D90G (Fc fusion)

Fold change to WT CD80 [6]: 46.6 fold | MFI at 33.3 nM [6]: 2050 MFI | Fold change to WT CD80 [7]: 18.7 fold | MFI at 33.3 nM [7]: 25400 MFI | Fold change to WT CD80 [8]: 407 fold | MFI at 33.3 nM [8]: 17700 MFI | Ratio of PDL1:CD28 [9]: 8.7
Substance: variant CD80 IgV-Fc H18Y/A26E/M47L/A71G/D90G (Fc fusion)

Fold change to WT CD80 [6]: 12.4 fold | MFI at 33.3 nM [6]: 544 MFI | Fold change to WT CD80 [7]: 16 fold | MFI at 33.3 nM [7]: 21700 MFI | Fold change to WT CD80 [8]: 682 fold | MFI at 33.3 nM [8]: 29700 MFI | Ratio of PDL1:CD28 [9]: 54.7
Substance: variant CD80 IgV-Fc H18Y/A26E/M47L/V68M/A71G (Fc fusion)

Fold change to WT CD80 [6]: 0.7 fold | MFI at 33.3 nM [6]: 32 MFI | Fold change to WT CD80 [7]: 21.1 fold | MFI at 33.3 nM [7]: 28600 MFI | Fold change to WT CD80 [8]: 541 fold | MFI at 33.3 nM [8]: 23600 MFI | Ratio of PDL1:CD28 [9]: 737
Substance: variant CD80 IgV-Fc H18Y/A26E/M47L/V68M/D90G (Fc fusion)

MFI at 33.3 nM [1]: 26300 MFI | MFI at 33.3 nM [3]: 3530 MFI | MFI at 33.3 nM [2]: 479 MFI
Substance: variant CD80 IgV-Fc H18Y/E35D (Fc fusion)

Fold change to WT CD80 [6]: 21.1 fold | MFI at 33.3 nM [6]: 928 MFI | Fold change to WT CD80 [7]: 17.4 fold | MFI at 33.3 nM [7]: 23700 MFI | Fold change to WT CD80 [8]: 697 fold | MFI at 33.3 nM [8]: 30400 MFI | Ratio of PDL1:CD28 [9]: 32.7
Substance: variant CD80 IgV-Fc H18Y/E35D/M47L/V68M/A71G (Fc fusion)

Fold change to WT CD80 [6]: 63.6 fold | MFI at 33.3 nM [6]: 2790 MFI | Fold change to WT CD80 [7]: 14.6 fold | MFI at 33.3 nM [7]: 19900 MFI | Fold change to WT CD80 [8]: 687 fold | MFI at 33.3 nM [8]: 29900 MFI | Ratio of PDL1:CD28 [9]: 10.7
Substance: variant CD80 IgV-Fc H18Y/E35D/M47L/V68M/A71G/D90G (Fc fusion)

MFI at 33.3 nM [3]: 6460 MFI | MFI at 33.3 nM [2]: 841 MFI
Substance: variant CD80 IgV-Fc H18Y/E35D/M47V/N48K (Fc fusion)

MFI at 33.3 nM [10]: 205000 MFI | MFI at 33.3 nM [11]: 43900 MFI
Substance: variant CD80 IgV-Fc I30V/E35D/M47V/A71G/A91V (Fc fusion)

MFI at 33.3 nM [4]: 52.8 MFI | MFI at 33.3 nM [12]: 944 MFI | MFI at 33.3 nM [5]: 56.3 MFI
Substance: variant CD80 IgV-Fc K89N (Fc fusion)

MFI at 33.3 nM [4]: 97 MFI | MFI at 33.3 nM [12]: 3000 MFI | MFI at 33.3 nM [5]: 35 MFI
Substance: variant CD80 IgV-Fc L85Q (Fc fusion)

MFI at 33.3 nM [1]: 23300 MFI | MFI at 33.3 nM [3]: 7760 MFI | MFI at 33.3 nM [2]: 1000 MFI
Substance: variant CD80 IgV-Fc M43I/M47L/A71G (Fc fusion)

MFI at 33.3 nM [4]: 4040 MFI | MFI at 33.3 nM [12]: 11100 MFI | MFI at 33.3 nM [5]: 60.9 MFI
Substance: variant CD80 IgV-Fc M47L/V68M/L85Q (Fc fusion)

MFI at 33.3 nM [4]: 622 MFI | MFI at 33.3 nM [12]: 32400 MFI | MFI at 33.3 nM [5]: 197 MFI
Substance: variant CD80 IgV-Fc M47V/K89N (Fc fusion)

MFI at 33.3 nM [4]: 3080 MFI | MFI at 33.3 nM [12]: 44600 MFI | MFI at 33.3 nM [5]: 413 MFI
Substance: variant CD80 IgV-Fc M47V/N48K (Fc fusion)

MFI at 33.3 nM [4]: 11800 MFI | MFI at 33.3 nM [12]: 24800 MFI | MFI at 33.3 nM [5]: 1320 MFI
Substance: variant CD80 IgV-Fc M47V/V68M/K89N (Fc fusion)

MFI at 33.3 nM [4]: 481 MFI | MFI at 33.3 nM [12]: 4950 MFI | MFI at 33.3 nM [5]: 60.1 MFI
Substance: variant CD80 IgV-Fc N48K (Fc fusion)

MFI at 33.3 nM [12]: 4370 MFI | MFI at 33.3 nM [5]: 170 MFI
Substance: variant CD80 IgV-Fc N48K/K89N (Fc fusion)

MFI at 33.3 nM [4]: 754 MFI | MFI at 33.3 nM [12]: 2340 MFI | MFI at 33.3 nM [5]: 118 MFI
Substance: variant CD80 IgV-Fc N48K/V68M (Fc fusion)

MFI at 33.3 nM [4]: 11500 MFI | MFI at 33.3 nM [12]: 19100 MFI
Substance: variant CD80 IgV-Fc N48K/V68M/K89N (Fc fusion)

MFI at 33.3 nM [10]: 2680 MFI | MFI at 33.3 nM [11]: 21400 MFI
Substance: variant CD80 IgV-Fc Q33R/E35D/M47V/N48K/L85M/F92L (Fc fusion)

MFI at 33.3 nM [1]: 21900 MFI | MFI at 33.3 nM [3]: 8170 MFI | MFI at 33.3 nM [2]: 990 MFI
Substance: variant CD80 IgV-Fc V22A/E35D/M47L/A71G (Fc fusion)

MFI at 33.3 nM [4]: 118 MFI | MFI at 33.3 nM [12]: 568 MFI | MFI at 33.3 nM [5]: 37.9 MFI
Substance: variant CD80 IgV-Fc V68M (Fc fusion)

MFI at 33.3 nM [4]: 538 MFI | MFI at 33.3 nM [12]: 2330 MFI
Substance: variant CD80 IgV-Fc V68M/K89N (Fc fusion)

MFI at 33.3 nM [4]: 347 MFI | MFI at 33.3 nM [12]: 3290 MFI | MFI at 33.3 nM [5]: 91.7 MFI
Substance: variant CD80 IgV-Fc V68M/L85Q (Fc fusion)
